The target of assay [1] is T1, rPmFREP CRD (Penaeus monodon, UniProt A0A068LKH5).
T1 construct: XEEL signal peptide, His6 tag; insect cells; lacks oligomeric structure
As to the kind of experiment: GlcNAc-resin affinity column, elution with free GlcNAc, anti-His Western blot. The assay is classed as binding. The note with it: 8 ml GlcNAc resin; eluted with 100 mM GlcNAc; proteins loaded at 5 µM each; immobilised ligand.

Assay [2] concerns the target recombinant Penaeus monodon lipopolysaccharide and β-1,3-glucan binding protein (Penaeus monodon) (UniProt H9MER4). As to the kind of experiment: BLI; BLItz; rPmLGBP immobilised on Octet SA biosensor activated with EDC and NHS; analytes in 20 mM HEPES pH 7.5, 150 mM NaCl, 10 mM CaCl2; association 4 minutes, dissociation 4 minutes; curves globally fitted.
The target of assay [3] is Penaeus monodon lipopolysaccharide and β-1,3-glucan binding protein (endogenous, hemolymph) (Penaeus monodon (endogenous in shrimp hemolymph)).
Assay [4] deals with T2, recombinant Penaeus monodon lipopolysaccharide and β-1,3-glucan binding protein (Penaeus monodon, UniProt H9MER4 1-366).
T2 construct: The construct holds the protein's own N-terminus (signal peptide); also called rPmLGBP; PmLGBP; source: insect cell expression system (Bac-to-Bac baculovirus), purified (Ni-NTA); not shown: His6, C-terminal, kept
T2 sequence (looked up): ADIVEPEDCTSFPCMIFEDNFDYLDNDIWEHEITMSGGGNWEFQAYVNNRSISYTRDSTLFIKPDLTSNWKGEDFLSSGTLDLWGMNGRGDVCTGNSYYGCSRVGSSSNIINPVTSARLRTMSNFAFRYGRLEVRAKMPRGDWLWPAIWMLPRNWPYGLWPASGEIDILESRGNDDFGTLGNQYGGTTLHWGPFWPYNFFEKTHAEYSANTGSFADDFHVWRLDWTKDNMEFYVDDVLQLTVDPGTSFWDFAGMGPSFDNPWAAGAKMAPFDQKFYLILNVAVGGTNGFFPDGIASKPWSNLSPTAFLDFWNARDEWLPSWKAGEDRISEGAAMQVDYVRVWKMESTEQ
As to the kind of experiment: BLI; BLItz; rPmLGBP immobilised on Octet SA biosensor activated with EDC and NHS; analytes in 20 mM HEPES pH 7.5, 150 mM NaCl, 10 mM CaCl2; association 4 minutes, dissociation 4 minutes; curves globally fitted. The note with it: both partners purified.

The target of assay [5] is T2, recombinant Penaeus monodon …. As to the kind of experiment: curdlan binding assay; rPmFREP and rPmLGBP, 0.1 µM each, incubated with 1 mg curdlan in 20 mM HEPES pH 7.5, 150 mM NaCl, 10 mM CaCl2, 4°C, 16 hours; curdlan collected by centrifugation, washed three times, eluted with 2% SDS; anti-His Western blot, densitometry of rPmFREP. Conditions: both partners purified.

We go through three molecules from article PMC12751051, “Penaeus monodon fibrinogen-related lectin interacts with lipopolysaccharide and β-1,3-glucan binding protein to activate the innate immune system” (Biochemical Journal, 2025).

As for `CC(=O)N[C@H]1C(O)O[C@H](CO)[C@@H](O)[C@@H]1O` (stereo partly drawn) [N-acetylglucosamine], the “GlcNAc-resin affinity column, elution with free GlcNAc, anti-His Western blot” value in assay [1] is “rPmFREP and rPmFREP CRD were bound to the GlcNAc column”.

As for rPmFREP CC-MBP (domain or fragment), the Kd in assay [2] stood at 220 nM. The PO activity in hemolymph of shrimp injected with the recombinant protein (1 nmol/g shrimp) and then infected with VP AHPND, against rMBP-injected control shrimp in assay [3] is 3 fold.

B1: recombinant Penaeus monodon fibrinogen-related protein (natural protein, UniProt A0A068LKH5 1-312, looked up)
chain: TTERTDTAEPQQPGGCHALPSLLQSAGSSLTCIAASLINCQANENDQLSIAQDLRDTMSEVRRAIVDAERRRRRPRHCRDLQLDGDSESGVRRVFPFRSSPDAAATVYCDQETDGGGWTVFQRRLKLPVREDFYRTWVEYELGFGHMDGGEFWLGLDLVHRLTSTGLQEMRIDLTDYEDNAKWAKYGVFHLGDASTKYRLKVGRYNGTAGDGFGSGRHDGHPFTTHDNDNDGDGANCAARYRGAWWYDKCHISNLNGFPYEGDHESYADGIEWQPWRGYHYSLKTTTMMIRPAF
notes: also called rPmFREP; PmFREP; source: insect cell expression system (baculovirus), purified (Ni-NTA)
B1: the Kd in assay [4] was found to be 340 nM. The PO activity in hemolymph of shrimp injected with the recombinant protein (1 nmol/g shrimp) and then infected with VP AHPND, against rMBP-injected control shrimp in assay [3] came out at 3.4 fold. For the same molecule, the “fold more rPmFREP in the curdlan elution fraction with rPmLGBP than without it” value in assay [5] was around 3.1 fold.
